We go through seven molecules from patent publication US20120328625A1 (AstraZeneca / MedImmune, published 2012).

The term koff denotes the first-order rate constant of dissociation. As usually defined, the kon is the second-order rate constant of association.

Numbering of substitutions follows the chain as printed.

The target in assay [1] is T1, full length human Shh expressed on the cell surface (human, UniProt Q15465 24-462).
T1 construct: whole, on cells; also called native human Shh; Shh-FL
Description: FMAT, hybridoma supernatant on 293T cells transiently expressing human Shh.
Description: Cells were maintained at 1×10⁶ cells/ml overnight at 37° C., 5% CO₂. […] Supernatants were added to each well (10 μl/well) and incubated 1.5 hrs at RT. […] Plates were read on the FMAT 8100 HTS system from Applied Biosystems. Total signal (FL1×count) is defined as the number of positive cells in a well (count) multiplied by the average fluorescence intensity of the positive cells (FL1).

For assay [2], the target named is T2, Shh-N in conditioned medium (human, UniProt Q15465 24-197, N-terminal palmitoyl modification; lacks the C-terminal cholesterol moiety). Put plainly: cell-based or functional assay.
The target in assay [3] is T2, Shh-N in conditioned medium. Description: ELISA, apparent KD, purified antibody on immobilized Shh-CM. In general terms: ELISA stands for enzyme-linked immunosorbent assay.
Description: (§1) The binding of purified antibodies to recombinant human Shh was determined using an ELISA-based method. The N-terminal signaling domain of Shh, Shh-N, was presented in two forms: as a purified protein isolated from bacteria lacking lipid modifications and as a constituent of conditioned medium in a form that contains the N-terminal palmitoyl modification but lacks the C-terminal cholesterol moiety.
(§2) The plates were sealed and placed on a shaker overnight at 5° C. The next day, the plates were washed 4 times with PBS with 0.05% Tween 20 (PBS-T). […] The plates were washed four times with PBS-T. Titrations of purified antibody (half log serial dilutions over at least six logs with a starting concentration of 30 μg/mL) were made in 100 μl PBS-T and added into wells and incubated with shaking overnight at 4° C. Antibody controls included human IgG2 and IgG4 (Sigma-Aldrich, Cat, #I5404 and #I4639, respectively). […] Following washing with PBS-T, the chemiluminescent Peroxidase substrate (Sigma cat# CPS-2-60) was added at room temperature and incubated for ten minutes with the plate covered by foil. Each well was read for 100 msec in the Spectromax 5e to determine RLU.
Assay [4] concerns the target T3, Recombinant Human Desert Hedgehog C23II, amino terminal peptide (R&D Systems cat#4777-HH) (human, UniProt O43323 23-198).
T3 construct: domain: amino terminal peptide; bought; also called Human Dhh
Put plainly: ELISA, immobilized human Dhh, antibody 30 µg/ml to 1 pg/ml.
Description: The plates were washed four times with PBS-T. Titrations of purified antibody (half log serial dilutions over at least six logs with a starting concentration of 30 μg/mL) were made in 100 μl PBS-T and added into wells and incubated with shaking overnight at 4° C. Antibody controls included human IgG2 and IgG4 (Sigma-Aldrich, Cat, #I5404 and #I4639, respectively). […] Following washing with PBS-T, the chemiluminescent Peroxidase substrate (Sigma cat# CPS-2-60) was added at room temperature and incubated for ten minutes with the plate covered by foil. Each well was read for 100 msec in the Spectromax 5e to determine RLU.
After washing with PBS-T and blocking with 1% BSA, antibody titrations spanning concentrations of 30 μg/ml to 1 pg/ml prepared by half log serial dilution in PBS-T were added to wells and incubated with shaking overnight at 4° C.

In a further assay the target is T4, biotinylated human Shh (human, UniProt Q15465 24-197, limits assumed, biotinylated).
T4 construct: also called biotin-Shh; immobilized biotinylated Shh
Put plainly: ELISA, hybridoma supernatant on neutravidin-captured biotin-Shh.

Assay [5] addresses T2, Shh-N in conditioned medium. Put plainly: cell-based or functional assay. The source holds these as a separate data set.
Assay [6] deals with T1, full length human Shh expressed on the …. Put plainly: cell-based or functional assay.
Assay [7] shares this target. Put plainly: flow cytometry, hybridoma-derived hIgG4 on HEK 293 cells stably expressing full length Shh; 95% CI ±141 pM. A general note: A flow cytometer gives signals particle by particle.
Description: The binding affinity of the purified antibodies for full length Shh ectopically expressed on the surface of a pool of stable HEK 293 cells was determined using flow cytometry. […] Antibody was mixed with cells at approximately 74,000 cells/well in a final volume of 300 μl in a polypropylene microtiter plate. The plate was incubated with shaking for 5 hours at 4° C. […] The plates were shaken for 20 minutes at 4° C. The mean fluorescence of 10,000 events was recorded for each sample using FACS Canto II HTS flow cytometry instrumentation. A plot of the mean fluorescence as a function of antibody concentration was fit nonlinearly with Scientist 3.0 software to estimate KD.
The target is the same in assay [8]. Description: flow cytometry, exhaust hybridoma supernatant 1:10, 293T cells transiently expressing human Shh.
Description: (§3) Finally, binding of antibody in exhaust hybridoma supernatants to native Shh was assessed using flow cytometry. […] Transfected or parental cells were seeded into the plates with V-bottom wells (50,000 cells/well). Exhaust supernatants (50 μl of a 1:10 dilution) were added to each well and incubated at 4° C. for 1 hr. […] It was added to a concentration of 2 μg/ml in a volume of 50 μl. Cells were washed and 50 μl of a 2 μg/ml solution of secondary antibody (Cy5-labeled goat-anti-human IgG or Cy5-labeled goat-anti-rabbit IgG) were added to each well. 7AAD was added to a concentration of 5 μg/ml and the mixture was incubated for 30 min at RT. The mean fluorescence for each sample was then determined using flow cytometry.
Assay [9] deals with T5, Recombinant Human Sonic Hedgehog C24II amino terminal peptide (R&D Systems cat#1845-SH) (human, UniProt Q15465 24-197).
T5 construct: domain: amino terminal peptide; bought; also called Shh-C24II; C24II peptide
Description: ELISA, apparent KD, purified antibody on immobilized Shh C24II.
Description: as §1, §2

Assay [10] deals with T2, Shh-N in conditioned medium. Put plainly: cell-based or functional assay. This is another data set of the same source.
Assay [11] addresses T1, full length human Shh expressed on the …. Put plainly: cell-based or functional assay. The source holds these as a separate data set.
Assay [12] has as its target T2, Shh-N in conditioned medium. Put plainly: SPR (Biacore T100), recombinant IgG2 mAb amine-coupled to CM5, Shh as analyte, 1:1 model. On the technique in general: Surface plasmon resonance follows binding to a sensor surface in real time, without labels.
Description: (§4) The binding affinity of four purified recombinant antibodies expressed in a human IgG2 constant domain background was measured by high resolution Biacore. All experiments were performed using a Biacore T100 instrument at 23° C. […] All mAbs were covalently coupled to a CM5 biosensor chip using routine amine coupling chemistry. […] For experiments with Shh-containing conditioned media (CM), a 1.5 mL aliquot was centrifuged for 10 minutes at 13,200 rpm. […] Shh samples were randomly injected in triplicate with several buffer inject cycles interspersed for double referencing. All sensorgram data were processed using Scrubber and fit to a 1:1 interaction model (including a term kₘ for mass transport) using CLAMP.
Assay [13] concerns the target T5, Recombinant Human Sonic Hedgehog C24II …. The description is as above.
Description: as §4
Assay [14] addresses T1, full length human Shh expressed on the …. Put plainly: flow cytometry, recombinant hIgG2 on CAOV3 cells stably over-expressing full length Shh; 95% CI ±30.4 pM.
Assay [15] shares this target. Put plainly: flow cytometry, transfected against parental 293T cells.
Description: as §3
Assay [16] addresses T2, Shh-N in conditioned medium. Description: cell-based or functional assay. This is another data set of the same source.
For assay [17], the target named is T1, full length human Shh expressed on the …. Description: flow cytometry, recombinant hIgG2 on CAOV3 cells stably over-expressing full length Shh; 95% CI ±32.4 pM.
Assay [18] shares this target. Description: flow cytometry, recombinant hIgG2 on CAOV3 cells stably over-expressing full length Shh; 95% CI ±460 pM.
Assay [19] has the same target. Put plainly: flow cytometry, recombinant hIgG2 on CAOV3 cells stably over-expressing full length Shh; 95% CI ±19.4 pM.
For assay [20], the target named is T2, Shh-N in conditioned medium. Description: SPR (Biacore T100), recombinant IgG2 mAb amine-coupled to CM5, Shh as analyte, 1:1 model; KD only an estimate.
Description: as §4
For assay [21], the target named is T5, Recombinant Human Sonic Hedgehog C24II …. The description is as above.
Description: as §4

Description for biotinylated human Shh: After blocking with 1% milk in PBS, 40 μl of 500 ng/ml biotinylated Shh in 1×PBS, 1% milk (wt/vol) was added to each well and incubated for 1 hr at RT. Hybridoma supernatants (10 μl/well) were added to 40 μl of 1% milk, 0.05% Tween-20 in PBS per well and incubated 1 hr at RT. Following washing and incubation with secondary antibody (100 ng/ml goat-anti-human IgG Fc HRP), wells were developed with TMB substrate and subsequently quenched with 1 N HCl.

B1: 3H8 (antibody, V domains shown)
VH: QVQLVESGGGVVQPGRSLRLSCAASGFTFSTYGMHWVRQAPGKGLEWVAVIWYDGSNKYYADSVKGRFTISRDNSKNTLNLQMNSLRAEDTAVYYCARDLYYYGSGSPFDYWGQGTLVTVSS
VL: EIVMTQSPATLSVSPGERATLSCRASQSVSSNLAWYQQKPGQAPRLLIFGVSIRATGIPARFSGSGSGTEFTLTISSLQSEDFAVYYCQQYNNWPRPGFGGGTKVEIK
notes: fully human XenoMouse hybridoma antibody; also called MAb 3H8
As for B1, in [1], the “FL1 X COUNT” value came to 497000. In addition, in assay [2], the “IC50, inhibition of osteoblast differentiation (alkaline phosphatase) of C3H10T1/2 cells” value is 3.4 nM. The Kd in assay [3] was found to be 0.331 nM. The binding result in assay [4] is given as “no binding”. In the assay with biotinylated human Shh, this molecule registered an OD450 of 3.81 OD450. Further, in assay [5], the “% Inhibition of Gli1 reporter, Conditioned Media N = 1, 20 µg/ml” value worked out at 37% and the “% Inhibition of Gli1 reporter, Conditioned Media N = 2, 20 µg/ml” value is 44%. In addition, in assay [6], the “% Inhibition of Gli1 reporter, Co-Culture N = 1, 20 µg/ml” value is 73% and the “% Inhibition of Gli1 reporter, Co-Culture N = 2, 20 µg/ml” value is 87%. Further, the Kd in assay [7] is 0.25 nM. In addition, in assay [8], the “X Geo Mean (Transients)” value is 148. Besides, the Kd in assay [9] was 0.069 nM. Moreover, in [10], the “% Inh of Gli1 reporter, CM N = 1” value was 21% and the “% Inh of Gli1 reporter, CM N = 3” value was -24%. Also, in assay [11], the “% Inh of Gli1 reporter, Co-Culture N = 1” value stood at 35% and the “% Inh of Gli1 reporter, Co-Culture N = 2” value came out at 32%.

B2: 3H8 recombinant IgG2 (antibody, V domains shown)
VH: B1 VH
VL: B1 VL
Turning to B2, the figures for the Kd in assay [12], in assay [13] and in assay [14] were 0.0056 nM, 0.0267 nM and 0.0682 nM, respectively.

B3: 4B6 (antibody, V domains shown)
VH: B1 VH with K58E, N80Y
VL: B1 VL with V51I, N93D, K104R
notes: fully human XenoMouse hybridoma antibody; tested as hybridoma supernatant and as purified antibody; also called MAb 4B6
For B3, in assay [1], the “FL1 X COUNT” value is 625000. Besides, the “IC50, inhibition of osteoblast differentiation (alkaline phosphatase) of C3H10T1/2 cells” value in assay [2] is 3.3 nM. In the assay with biotinylated human Shh, the OD450 worked out at 5.14 OD450. For the same molecule, in assay [5], the “% Inhibition of Gli1 reporter, Conditioned Media N = 1, 20 µg/ml” value amounted to 73% and the “% Inhibition of Gli1 reporter, Conditioned Media N = 2, 20 µg/ml” value came out at 43%. In assay [6], the “% Inhibition of Gli1 reporter, Co-Culture N = 1, 20 µg/ml” value was 44%; the “% Inhibition of Gli1 reporter, Co-Culture N = 2, 20 µg/ml” value amounted to 76%; the “% Inhibition of Gli1 reporter, Co-Culture N = 3, 20 µg/ml” value was determined as 22%. Moreover, the “X Geo Mean (Transients)” value in assay [8] was found to be 196. For the same molecule, in assay [15], the ratio was 50.2. In assay [10], the “% Inh of Gli1 reporter, CM N = 1” value worked out at 46% and the “% Inh of Gli1 reporter, CM N = 3” value stood at 22%. Besides, in [11], the “% Inh of Gli1 reporter, Co-Culture N = 1” value turned out to be 31% and the “% Inh of Gli1 reporter, Co-Culture N = 2” value turned out to be 34%.

B4: 1G1 (antibody, V domains shown)
VH: EVQLVESGGGLVKPGGSLRLSCAASGFTFSSYSMNWVRQAPGKGLEWVSSFSSSSSYIYYADSVKGRFTISRDNAKNSLYLQMNSLRAEDTAVYYCARDRGDYVDYYYGMDVWGQGTTVTVSS
VL: SYELTQPPSVSVSPGQTASITCSGDKLDYKYICWYQQKPGQSPVLVIYQDIKRPSGIPERFSGSNSGNTATLTISGTQAMDEADYYCQAWDSNTPLVFGGGTKLTVL
notes: fully human XenoMouse hybridoma antibody; also called MAb 1G1
Take B4: the “FL1 X COUNT” value in [1] is 585000. For the same molecule, the “IC50, inhibition of osteoblast differentiation (alkaline phosphatase) of C3H10T1/2 cells” value in assay [2] was 5.7 nM. Besides, the Kd in [3] turned out to be 0.03 nM. The molecule also came in with an OD450 with biotinylated human Shh of 4.3 OD450. Moreover, in assay [5], the “% Inhibition of Gli1 reporter, Conditioned Media N = 1, 20 µg/ml” value came out at 50% and the “% Inhibition of Gli1 reporter, Conditioned Media N = 2, 20 µg/ml” value came to 61%. In addition, in assay [6], the “% Inhibition of Gli1 reporter, Co-Culture N = 1, 20 µg/ml” value came to 44%; the “% Inhibition of Gli1 reporter, Co-Culture N = 2, 20 µg/ml” value amounted to 55%; the “% Inhibition of Gli1 reporter, Co-Culture N = 3, 20 µg/ml” value was found to be 19%. In addition, in assay [16], the “IC50, inhibition of endogenous mouse Gli1 mRNA (qRT-PCR) in C3H10T1/2 cells” value stood at 7.7 nM and the “IC50, inhibition of endogenous mouse Ptc1 mRNA (qRT-PCR) in C3H10T1/2 cells” value is 8.7 nM. Also, the “X Geo Mean (Transients)” value in assay [8] is 188. In [9], the Kd was 0.061 nM. Besides, in assay [10], the “% Inh of Gli1 reporter, CM N = 1” value was found to be 33% and the “% Inh of Gli1 reporter, CM N = 3” value was 47%. In assay [11], the “% Inh of Gli1 reporter, Co-Culture N = 1” value came to 42% and the “% Inh of Gli1 reporter, Co-Culture N = 2” value is 39%.

B5: 1G1 recombinant IgG2 (antibody, V domains shown)
VH: B4 VH
VL: B4 VL
With B5, the Kd was 0.317 nM in assay [12], 0.377 nM in assay [13] and 0.0465 nM in assay [17].

B6: 1H8 recombinant IgG2 (antibody, V domains shown)
VH: QVQLQESGPGLVKPSETLSLTCTVSGGSISSYYWTWIRQPPGKGLEWIGYIYYSGSTNYNPSLKSRVTISVDTSKNQFSLKLSSVTAADTAVYYCARDRLLYGMDVWGQGTTVTVSS
VL: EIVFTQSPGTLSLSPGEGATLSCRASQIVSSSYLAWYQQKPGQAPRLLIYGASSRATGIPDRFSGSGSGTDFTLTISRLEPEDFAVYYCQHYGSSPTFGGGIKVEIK
notes: also called 1H8 hIgG2
Turning to B6, the Kd in [18] was 1.52 nM. Besides, in [12], the Kd came out at 4.31 nM, the off-rate constant (koff) was 0.00289 s⁻¹ and the association rate constant (kon) was determined as 671000 M⁻¹ s⁻¹. In assay [13], the Kd is 4.3 nM, the koff is 0.00209 s⁻¹ and the on-rate (kon) turned out to be 486000 M⁻¹ s⁻¹.

B7: 6D7 recombinant IgG2 (antibody, V domains shown)
VH: QVQLQESGPGLVKPSQTLSLTCTVSGGSINSGGFYWSWIRQHPGKNLEWIGSIYYSGNTYYNPSLKSRVTISVDTSKNQFSLKLTSVTAADTAVYYCARGNDSGDYDWYFDLWGRGTLVTVSS
VL: SYELTQPPSVSVSPGQTASITCSGEKLGYKYVCWYQQKPGQSPVLVIFHDNKRPSGIPERFSGSNSGNTATLTISGAQAMDEADYYCQAGDSSAVFGGGTKLTVL
On to B7, for which the results for the Kd in assay [19], in assay [20] and in assay [21] were 0.0371 nM, 0.0034 nM and 0.0135 nM, respectively.
